Key:
[1] = target: apo-SufR (clusterless Mtb SufR, Rv1460) (Mycobacterium tuberculosis); test: SEC
[2] = target: holo-SufR (Mtb SufR, Rv1460, with its 4Fe–4S cluster) (Mycobacterium tuberculosis); test: SEC

Substance	stoichiometry N [1]	stoichiometry N [2]
apo-SufR (clusterless Mtb SufR, Rv1460) (natural protein)	2	
holo-SufR (Mtb SufR, Rv1460, with its 4Fe–4S cluster) (natural protein)		2

Reference: paper PMC8371249
